Measurements as given in the supplement of paper PMC7125110.
± gives the standard error. This sample holds only a part of the variants without activity.

B1: glmS ribozyme (parent)
chain: AUAAAAGCGCCAGAACUACAGAAAUGUAGUUGACGAGGAGGAGGUUUAUCGAAUUUUCGGCGGAUGCCUCCAAA

Assays:
Details in all cases: with glucosamine-6-phosphate
glucosamine-6-phosphate [1] = variants of: B1; assay: self-cleavage kobs at 40 uM GlcN6P; higher = faster cleavage; RNA array
Outline: (§1)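 Over ~14 h at 37 °C, tiles were imaged as glucosamine-6-phosphate (40 μM to 10 mM) in HEPES/KCl/Mg(OAc)2 buffer flowed across sequenced MiSeq chips. The chips carried barcoded ribozyme variants transcribed in situ by E. coli RNA polymerase and tracked with a hybridised Cy3 probe. After normalisation to baseline and to non-cleaving reference variants, one- or two-exponential decay fits of per-tile medians gave kobs. kcat and KM followed from weighted Michaelis–Menten fits across concentrations.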

glucosamine-6-phosphate [2] = variants of: B1; assay: self-cleavage kobs at 160 uM GlcN6P; higher = faster cleavage; RNA array
Outline: as §1

glucosamine-6-phosphate [3] = variants of: B1; assay: self-cleavage kobs at 640 uM GlcN6P; higher = faster cleavage; RNA array
Outline: as §1

glucosamine-6-phosphate [4] = variants of: B1; assay: self-cleavage kobs at 2500 uM GlcN6P; higher = faster cleavage; RNA array
Outline: as §1

glucosamine-6-phosphate [5] = variants of: B1; assay: self-cleavage kobs at 10000 uM GlcN6P; higher = faster cleavage; RNA array
Outline: as §1

Variant | self-cleavage kobs at 40 uM GlcN6P (glucosamine-6-phosphate [1]) | self-cleavage kobs at 160 uM GlcN6P (glucosamine-6-phosphate [2]) | self-cleavage kobs at 640 uM GlcN6P (glucosamine-6-phosphate [3]) | self-cleavage kobs at 2500 uM GlcN6P (glucosamine-6-phosphate [4]) | self-cleavage kobs at 10000 uM GlcN6P (glucosamine-6-phosphate [5])
A36C U45G | < 1e-05 s⁻¹ | < 1e-05 s⁻¹ | < 1e-05 s⁻¹ | < 1e-05 s⁻¹ | < 1e-05 s⁻¹
C34G G41U C58U | < 1e-05 s⁻¹ |  |  |  | < 1e-05 s⁻¹
C11U G51U | < 1e-05 s⁻¹ | < 1e-05 s⁻¹ | < 1e-05 s⁻¹ | < 1e-05 s⁻¹ | < 1e-05 s⁻¹
A14U U56G | 0.000924 ± 0.00012 s⁻¹ | 0.00383 ± 0.00078 s⁻¹ | 0.0066 ± 0.0011 s⁻¹ | 0.0108 ± 0.0026 s⁻¹ | 0.0462 ± 0.0095 s⁻¹
A33U G38A G41C U54G | < 1e-05 s⁻¹ |  |  |  | 
U47A C68A | < 1e-05 s⁻¹ |  |  |  | 
G37U G62A | < 1e-05 s⁻¹ | < 1e-05 s⁻¹ |  |  | 
G7A A12G U30C U49A C71U | < 1e-05 s⁻¹ |  |  |  | 
U56C G59C | < 1e-05 s⁻¹ |  |  |  | < 1e-05 s⁻¹
C10U A48C | < 1e-05 s⁻¹ | < 1e-05 s⁻¹ | < 1e-05 s⁻¹ | < 1e-05 s⁻¹ | < 1e-05 s⁻¹
A15G G44U C68G | < 1e-05 s⁻¹ |  |  |  | 
A14G U56C G59U | < 1e-05 s⁻¹ |  |  |  | 2.7e-05 ± 1.3e-05 s⁻¹
A42U U46C G51C C61A | < 1e-05 s⁻¹ |  |  |  | 
G43C U47G | < 1e-05 s⁻¹ |  | < 1e-05 s⁻¹ |  | < 1e-05 s⁻¹
G37U G43C U65C | < 1e-05 s⁻¹ |  | < 1e-05 s⁻¹ |  | < 1e-05 s⁻¹
C11G U30C U31G | < 1e-05 s⁻¹ |  |  |  | 
A6G G63A | < 1e-05 s⁻¹ | < 1e-05 s⁻¹ | < 1e-05 s⁻¹ | < 1e-05 s⁻¹ | < 1e-05 s⁻¹
A6G G7A G51C | < 1e-05 s⁻¹ |  |  |  | < 1e-05 s⁻¹
A12G A48U | < 1e-05 s⁻¹ | < 1e-05 s⁻¹ |  |  | 2.34e-05 ± 7.6e-06 s⁻¹
G41C G59U | < 1e-05 s⁻¹ |  | < 1e-05 s⁻¹ | < 1e-05 s⁻¹ | < 1e-05 s⁻¹
A12U G29U A33U A42U U49A | < 1e-05 s⁻¹ |  |  |  | 
G7A G32U A39G C58A | < 1e-05 s⁻¹ |  |  |  | < 1e-05 s⁻¹
C34A U57C | < 1e-05 s⁻¹ | < 1e-05 s⁻¹ |  | < 1e-05 s⁻¹ | < 1e-05 s⁻¹
A6U G13A A14U | < 1e-05 s⁻¹ | < 1e-05 s⁻¹ |  |  | < 1e-05 s⁻¹
C10G U30A C71G | < 1e-05 s⁻¹ |  |  |  | 
